Legend:
Type in all cases: in vivo
[1] = system: MOLP-8 human multiple myeloma cells; test: huN901-DM1 and thalidomide in established subcutaneous MOLP-8 multiple myeloma xenografts; details: SCID mice; huN901-DM1 100 μg/kg, thalidomide 200 mg/kg, as single agents or combined
Description: (§1) Mice were inoculated with human multiple myeloma tumor cell lines and allowed to become established (average tumor size of about 100 mm^3) prior to treatment. Conjugate dosing is described based on DM1 concentration. Efficacy is reported as both the % of tumor growth for treated vs. control (% T/C) and log cell kill (LCK) determined from the tumor doubling time and the tumor growth delay due to the treatment.
(§2) Tumor growth was monitored by measuring tumor size twice per week. Tumor size was calculated with the formula: length×width×height×½.

[2] = system: OPM2 human multiple myeloma cells; test: huN901-DM1 and lenalidomide in established subcutaneous OPM2 multiple myeloma xenografts; details: combination same doses; for LCK / T/C: SCID mice, lenalidomide 100 mg/kg i.p. days 16-20, 23-27; for LCK: huN901-DM1 200 μg/kg i.v. day 16; for T/C: huN901-DM1 200 μg/kg i.v. single injection day 16
Method: as §1
The anti-tumor effect of a combination of huN901-DM1 and lenalidomide was evaluated in an established subcutaneous xenograft model of multiple myeloma. SCID mice (20 animals) were inoculated with OPM2 human multiple myeloma cells (1×10^7 cells/animal) injected subcutaneously into the right shoulder of the mice. When the tumors reached about 130 mm^3 in size (16 days after tumor cell inoculation), the mice were randomly divided into four groups (5 animals per group). One group of mice was treated with the single agent huN901-DM1 (200 μg/kg, day 16 post tumor cell inoculation) administered intravenously. […] A third group was treated with a combination of huN901-DM1 plus lenalidomide using the same doses, schedules and administration routes used for single agent treated groups. A control group of animals received PBS administered intravenously (day 16 post tumor cell inoculation). Tumor growth was monitored by measuring tumor size twice per week. Tumor size was calculated with the formula: length×width×height×½.

[3] = system: OPM2 human multiple myeloma cells; test: huN901-DM1 and bortezomib in established subcutaneous OPM2 multiple myeloma xenografts; details: SCID mice
Description: as §1
The anti-tumor effect of a combination of huN901-DM1 and bortezomib (Velcade, Millennium Pharmaceuticals) was evaluated in an established subcutaneous xenograft model of multiple myeloma. SCID mice (36 animals) were inoculated with OPM2 human multiple myeloma cells (1×10^7 cells/animal) injected subcutaneously into the right shoulder of the mice. […] Two groups of mice were treated with the single agent huN901-DM1 at DM1 doses of 100 μg/kg and 200 μg/kg, respectively (day 12 post tumor cell inoculation) administered intravenously. A third group of mice was treated with the single agent bortezomib at a dose of 1 mg/kg (days 13 and 16 post tumor cell inoculation), administered intravenously. Two groups were treated with combinations of huN901-DM1 (100 μg/kg or 200 μg/kg) plus bortezomib using the same doses, schedules and administration routes used for single agent treated groups. A control group of animals received PBS administered intravenously (day 12 post tumor cell inoculation). Tumor growth was monitored by measuring tumor size twice per week. Tumor size was calculated with the formula: length×width×height×½.

[4] = system: H929 human multiple myeloma cells; test: huN901-DM1 and bortezomib in H929 multiple myeloma large tumor xenografts; details: for activity according to NCI standards: huN901-DM1 50 μg/kg, bortezomib 0.5 mg/kg, as single agents or combined
Method: as §1
The anti-tumor effect of a combination of huN901-DM1 and bortezomib was evaluated in an established subcutaneous xenograft model of multiple myeloma. SCID mice (54 animals) were inoculated with H929 human multiple myeloma cells (1×10^7 cells/animal) injected subcutaneously into the right shoulder of the mice. […] Two groups of mice were treated with the single agent huN901-DM1 at DM1 doses of 50 μg/kg and 100 μg/kg, respectively (day 34 post tumor cell inoculation) administered intravenously. Two groups of mice were treated with the single agent bortezomib at a 0.5 mg/kg low dose and 1 mg/kg high dose (days 35 and 38 post tumor cell inoculation) administered intravenously. Four combination groups were evaluated, with combinations of each dose of huN901-DM1 plus low- or high-dose bortezomib using the same schedules used for single agent treated groups. A control group of animals received PBS administered intravenously (day 34 post tumor cell inoculation). Tumor growth was monitored by measuring tumor size twice per week. Tumor size was calculated with the formula: length×width×height×½.

[5] = system: MOLP-8 human multiple myeloma cells; details: Balb/c nude mice; huN901-DM1 200 μg/kg DM1 i.v. single injection day 22; melphalan 12 mg/kg i.p. single injection day 23; combination same doses
Description: as §1, §2

[6] = system: MOLP-8 human multiple myeloma cells; test: Triple combination huN901-DM1, lenalidomide plus low-dose dexamethasone in MOLP-8 xenografts
Method: Lenalidomide (100 mg/kg, qd×5×2) was administered at days 1-5 and 8-12. […]
as §1
The anti-tumor effect of a triple-combination of huN901-DM1 and lenalidomide plus low-dose dexamethasone was evaluated in an established subcutaneous xenograft model of multiple myeloma. SCID mice were inoculated with MOLP-8 human multiple myeloma cells (1.5×10^7 cells/animal) injected subcutaneously into the right shoulder of the mice. […] Treatments were initiated on day 13 post inoculation, indicated as day 1 of treatment. […] A second group of mice was treated with the combination of lenalidomide/low-dose dexamethasone (lenalidomide at 100 mg/kg, administered as a suspension in 1% carboxymethylcellulose/PBS by intraperitoneal injection on days 1-5, 8-12; dexamethasone at 1.5 mg/kg, administered by subcutaneous injection on days 1 and 8). A third group was treated with the triple-combination of huN901-DM1 plus lenalidomide/dexamethasone using the same doses, schedules and administration routes used for individual treatment groups. A control group of animals received PBS administered intravenously (days 1 and 8). Tumor growth was monitored by measuring tumor size twice per week. Tumor size was calculated with the formula: length×width×height×½.

[7] = bortezomib single agent, high dose 1.0 mg/kg
[8] = huN901-DM1 200 μg/kg, lenalidomide 100 mg/kg

O=C1CCC(N2C(=O)c3ccccc3C2=O)C(=O)N1 (stereo not shown) [thalidomide, reference compound]
activity according to NCI standards [1]: inactive

Nc1cccc2c1CN(C1CCC(=O)NC1=O)C2=O (stereo not shown) [lenalidomide, reference compound]
LCK [2]: 0.9 | T/C [2]: 28%

CC(C)C[C@H](NC(=O)[C@H](Cc1ccccc1)NC(=O)c1cnccn1)B(O)O [bortezomib]
tumor-free mice at day 91 ([3]; bortezomib single agent 1 mg/kg i.v. days 13 and 16): no tumor-free mice | T/C [4, 7]: 11% | activity [4, 7]: active | tumor-free mice at day 119 [4, 7]: 1 of 6 | activity according to NCI standards [4]: inactive

N[C@@H](Cc1ccc(N(CCCl)CCCl)cc1)C(=O)O [melphalan, reference compound]
tumor growth delay [5]: 14 days

B1: huN901-DM1: humanized antibody N901-maytansinoid conjugate (huN901-DM1); N901 binds to CD56 (conjugate, chains of the INN, looked up)
VH: QVQLVESGGGVVQPGRSLRLSCAASGFTFSSFGMHWVRQAPGKGLEWVAYISSGSFTIYYADSVKGRFTISRDNSKNTLYLQMNSLRAEDTAVYYCARMRKGYAMDYWGQGTLVTVSS
VL: DVVMTQSPLSLPVTLGQPASISCRSSQIIIHSDGNTYLEWFQQRPGQSPRRLIYKVSNRFSGVPDRFSGSGSGTDFTLKISRVEAEDVGVYYCFQGSHVPHTFGQGTKVEIK
modifications: DM1 maytansinoid conjugate
tumor growth delay [5]: 11 days | activity according to NCI standards [1]: inactive | tumor-free mice at day 91 ([3]; huN901-DM1 100 μg/kg i.v. day 12, alone or plus bortezomib 1 mg/kg i.v. days 13 and 16): 1 of 6 | tumor-free mice at day 91 ([3]; huN901-DM1 200 μg/kg i.v. day 12, alone or plus bortezomib 1 mg/kg i.v. days 13 and 16): 3 of 6 | activity according to NCI standards [4]: inactive | LCK [2]: 0.9 | T/C [2]: 26% | activity [2, 8]: active | tumor-free mice at the end of the study [2, 8]: no tumor-free survivors | activity ([6]; MOLP-8 tumors, doses as in Example 7): active | T/C ([6]; SCID mice, huN901-DM1 150 ng/kg, qw×2 i.v., lenalidomide 100 mg/kg i.p. days 1-5, 8-12, dexamethasone 1.5 mg/kg s.c. days 1 and 8): 33% | LCK ([6]; SCID mice, huN901-DM1 150 μg/kg, qw×2 i.v., lenalidomide 100 mg/kg i.p. days 1-5, 8-12, dexamethasone 1.5 mg/kg s.c. days 1 and 8): 0.5 | regressions ([6]; huN901-DM1 alone or lenalidomide/dexamethasone groups): no regressions
